The data set can be described thus: self-splicing fitness, log relative to wild type (ln ratio); higher = more splicing; Tetrahymena group I intron in knt gene, E. coli kanamycin selection, DiMSum; sequences stand for … in CUCUCU…GGAGGGAAAAGUUAUCAGGCAUGCACCUGGUAGCUAGUCUUUAAACCAAUAGAUUGCAUCGGUUUAAAAGGCAAGACCGUCAAAUUGCGGGAAAGGGGUCAACAGCCGUUCAGUACCAAGUCUCAGGGGAAACUUUGAGAUGGCCUUGCAAAGGGUAUGGUAAUAAGCUGACGGACAUGGUCCUAACCACGCAGCCAAGUCCUAAGUCAACAGAUCUUCUGUUGAUAUGGAUGCAGUUCACAGACUAAAUGUCGGUCGGGGAAGAUGUAUUCUUCUCAUAAGAUAUAGUCGGACCUCUCCUUAAUGGGAGCUAGCGGAUGAAGUGAUGCAACACUGGAGCCGCUGGGAACUAAUUUGUAUGCGAAAGUAUAUUGAUUAGUUUUGGAGUACUCGUGGUCG
In outline: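 A randomised library covering all eight P1ex-region intron nucleotides was built with the intron in the knt kanamycin-resistance gene on pET-22b(+) and held in E. coli BL21(DE3). Cells were grown overnight at 37°C or 30°C on LB agar, with or without 25 μg/mL kanamycin, plus 100 μg/mL carbenicillin, 50 μM IPTG and 0.2% rhamnose, and pooled colonies were amplicon-sequenced on an Illumina HiSeq 2500. DiMSum fitness is the error-weighted combination of wild-type-normalised replicate fold changes, kanamycin versus none.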

± gives the uncertainty stated by the source.

Turning to CCGCAGCAAUAUUACGUAUA, the “self-splicing fitness (ln)” value reads like this: (30 °C) -3.6 ± 0.16; (37 °C) -3.03 ± 0.19. Regarding CCUUAGCAAUAUUACGGAUA, the “self-splicing fitness (ln)” value runs as follows: (30 °C) -2.98 ± 0.29; (37 °C) -1.92 ± 0.37. With UCCAAGCAAUAUUACGCUGG, the “self-splicing fitness (ln)” value runs as follows: (30 °C) -4.72 ± 0.28; (37 °C) -1.81 ± 0.18.

For the sequence CUAUAGCAAUAUUACGGGCG, the “self-splicing fitness (ln)” value by setting is: (30 °C) -0.345 ± 0.084; (37 °C) -0.342 ± 0.098. For UCAAAGCAAUAUUACGGGUC, the “self-splicing fitness (ln)” value was -3.59 ± 0.23 (30 °C) and -3.14 ± 0.25 (37 °C). In the case of AUGGAGCAAUAUUACGAUCG, the “self-splicing fitness (ln)” value (37 °C) was -1.1 ± 0.42. Take CGAUAGCAAUAUUACGUCCG: the “self-splicing fitness (ln)” value by setting is: (30 °C) -1.4 ± 0.1; (37 °C) -0.5 ± 0.12.

Consider CAAGAGCAAUAUUACGUCGC, for which the “self-splicing fitness (ln)” value was -4.54 ± 0.38 (30 °C) and -2.38 ± 0.29 (37 °C). For CAGAAGCAAUAUUACGAUGG, in that order: -0.534 ± 0.064 and -0.254 ± 0.078. Turning to CACUAGCAAUAUUACGCCGC, the “self-splicing fitness (ln)” value (37 °C) is -2.58 ± 0.5. Consider CUUCAGCAAUAUUACGACUC, for which the “self-splicing fitness (ln)” value by setting is: (30 °C) -2.49 ± 0.21; (37 °C) -1.46 ± 0.23. In the same order, the values of UCUCAGCAAUAUUACGACUC are -3.38 ± 0.38 and -2.02 ± 0.33. ACCGAGCAAUAUUACGUGAG: the “self-splicing fitness (ln)” value reads like this: (30 °C) -2.27 ± 0.091; (37 °C) -0.997 ± 0.091. With GCACAGCAAUAUUACGCAAU, the “self-splicing fitness (ln)” value runs as follows: (30 °C) -1.14 ± 0.1; (37 °C) -0.864 ± 0.087. As to AGUUAGCAAUAUUACGAAGC, the “self-splicing fitness (ln)” value is -3.59 ± 0.48 (30 °C) and -1.98 ± 0.48 (37 °C).

Regarding GUAAAGCAAUAUUACGAUGA, the “self-splicing fitness (ln)” value is, setting by setting: (30 °C) -0.0816 ± 0.064; (37 °C) -0.318 ± 0.068.

Take ACGAAGCAAUAUUACGCCAG: the “self-splicing fitness (ln)” value is, setting by setting: (30 °C) -2.08 ± 0.19; (37 °C) -1.72 ± 0.3.

With UAGCAGCAAUAUUACGGAGA, the “self-splicing fitness (ln)” value is, setting by setting: (30 °C) -3.24 ± 0.33; (37 °C) -2.18 ± 0.14. Consider CUCCAGCAAUAUUACGUCUG, for which the “self-splicing fitness (ln)” value (30 °C) is -3.51 ± 0.17 and the “self-splicing fitness (ln)” value (37 °C) is -2.54 ± 0.18. As for ACCGAGCAAUAUUACGCUAG, the “self-splicing fitness (ln)” value is, setting by setting: (30 °C) -2.62 ± 0.22; (37 °C) -1.44 ± 0.21.

Regarding UCAGAGCAAUAUUACGCAGG, the “self-splicing fitness (ln)” value (37 °C) is 0.137 ± 0.42. Take CCAGAGCAAUAUUACGAGGG: the “self-splicing fitness (ln)” value (30 °C) is -4.31 ± 0.39 and the “self-splicing fitness (ln)” value (37 °C) is -2.39 ± 0.41. Turning to UGGGAGCAAUAUUACGGAAU, for the setting “37 °C”, the “self-splicing fitness (ln)” value was -1.69 ± 0.48. Turning to CCCCAGCAAUAUUACGGUAG, the “self-splicing fitness (ln)” value is -2 ± 0.065 (30 °C) and -1.31 ± 0.097 (37 °C). For ACAAAGCAAUAUUACGGUGU, the “self-splicing fitness (ln)” value (30 °C) was -3.29 ± 0.14 and the “self-splicing fitness (ln)” value (37 °C) was -2.81 ± 0.15.

Consider CUAGAGCAAUAUUACGAGUA, for which the “self-splicing fitness (ln)” value was -3.71 ± 0.23 (30 °C) and -1.17 ± 0.17 (37 °C).

Take AUGAAGCAAUAUUACGUGCC: the “self-splicing fitness (ln)” value runs as follows: (30 °C) -0.735 ± 0.12; (37 °C) -0.196 ± 0.11. GGCUAGCAAUAUUACGAUCA: the “self-splicing fitness (ln)” value by setting is: (30 °C) -0.733 ± 0.093; (37 °C) -0.246 ± 0.088.

Turning to CCAGAGCAAUAUUACGUUCG, the “self-splicing fitness (ln)” value is -2.91 ± 0.17 (30 °C) and -1.64 ± 0.17 (37 °C). As for AGUCAGCAAUAUUACGCUUC, the “self-splicing fitness (ln)” value is, setting by setting: (30 °C) -2.35 ± 0.2; (37 °C) -1.79 ± 0.21. In the same order, the values of UUACAGCAAUAUUACGGCAA are -0.112 ± 0.11 and -0.272 ± 0.12. For CUCCAGCAAUAUUACGAAGU, in that order: -3.59 ± 0.16 and -2.98 ± 0.26. For the sequence AGAAAGCAAUAUUACGCCCC, the “self-splicing fitness (ln)” value (30 °C) is -0.22 ± 0.36.

Consider CAUAAGCAAUAUUACGCCUC, for which the “self-splicing fitness (ln)” value is, setting by setting: (30 °C) -2.88 ± 0.39; (37 °C) -1.75 ± 0.41. For the sequence GUCUAGCAAUAUUACGUGUC, the “self-splicing fitness (ln)” value runs as follows: (30 °C) -0.8 ± 0.089; (37 °C) -0.0601 ± 0.086.

For the origin of these results see the supplement of paper PMC7877785.
